Measurements reported in PMC6906691.

Columns and labels:
Test in all cases: chemical modification
Conditions in all cases: 37 °C, added salt not given, universal pH buffer: 5 mM CHES, 5 mM HEPES, 5 mM MES, degassed and charged with nitrogen
[1] = target: Cys3 (position 3, ---YGCAAAAA)
[2] = target: Cys3 (position 3, ---RRCPYSDA)
[3] = target: Cys3 (position 3, ---KKCPYSAA)
[4] = target: Cys3 (position 3, ---YGCAAADA)
[5] = target: Cys3 (position 3, ---KKCPYSDA)
[6] = target: Cys3 (position 3, ---YGCPAADA)
[7] = target: Cys3 (position 3, ---GGCPYADA)
[8] = target: Cys3 (position 3, ---KKCPYSAD)
[9] = free peptide, 2-4Zn(II) absent. Peptide-a of this series, which lacks Cys, is described as a random coil without zinc complex.
[10] = peptide (4 µM) in binding complex with the tetranuclear zinc complex 2-4Zn(II) (14 µM), alpha-helical conformation induced by the complex

YGCAAAAAADDDDGDDDD [peptide-i (D4-tag peptide) (synthetic construct)] showed a pKa [1, 9] of 8.96 and a pKa [1, 10] of 8.22.

Protein RRCPYSDAAADAAADAAAD [peptide-h (synthetic construct)] has a pKa [2, 9] of 8.02 and a pKa [2, 10] of 7.18.

For KKCPYSAADAAADAAADAAAD [peptide-k (helixD2-tag peptide) (synthetic construct)], the pKa [3, 9] was 7.95 and the pKa [3, 10] was 7.14.

YGCAAADAAADAAADAAAD [peptide-d (Asp-rich alpha-helical tag peptide) (synthetic construct)] was tested, and the pKa [4, 9] was 8.89 and the pKa [4, 10] was 7.94.

Protein KKCPYSDAAADAAADAAAD [peptide-g (synthetic construct)] has a pKa [5, 9] of 8.04 and a pKa [5, 10] of 7.13.

YGCPAADAAADAAADAAAD [peptide-f (synthetic construct)] showed a pKa [6, 9] of 8.93 and a pKa [6, 10] of 7.80.

For GGCPYADAAADAAADAAAD [peptide-e (Cys-Pro-Tyr-Ala glutaredoxin-mimicking tag peptide) (synthetic construct)], the pKa [7, 9] was 8.48 and the pKa [7, 10] was 7.46.

In the case of KKCPYSADAAADAAADAAAD [peptide-j (synthetic construct)], the pKa [8, 9] is reported as 7.94 and the pKa [8, 10] is reported as 7.08.
